The source of these data is patent publication US9540654B2, “Synthetic brassica-derived chloroplast transit peptides” (Dow AgroSciences LLC, priority 2012, dated 2017).

For assay [1], the system named is Arabidopsis. In words: dgt-28 as a selectable marker with glyphosate selection. It is filed as in vivo, Arabidopsis thaliana. The following applies: 26.25-1680 g ae/ha glyphosate applied 7 and 11 DAP. On the procedure:
The use of dgt-28 as a selectable marker for glyphosate selection agent is tested with the Arabidopsis transformed plants described above. Approximately 50 T4 generation Arabidopsis seed (homozygous for dgt-28) are spiked into approximately 5,000 wildtype (sensitive to glyphosate) seed. The seeds are germinated and plantlets are sprayed with a selecting dose of glyphosate. Several treatments of glyphosate are compared; each tray of plants receives either one or two application timings of glyphosate in one of the following treatment schemes: 7 DAP (days after planting), 11 DAP, or 7 followed by 11 DAP. Since all plants also contain a glufosinate resistance gene in the same transformation vector, dgt-28 containing plants selected with glyphosate can be directly compared to DSM-2 or pat containing plants selected with glufosinate.
Glyphosate treatments are applied with a DeVilbiss™ spray tip as previously described. Transgenic plants containing dgt-28 are identified as “resistant” or “sensitive” 17 DAP. […] Sensitive and resistant plants are counted and the number of glyphosate tolerant plants is found to correlate with the original number of transgenic seed containing the dgt-28 transgene which are planted.

The test system of assay [2] is Zea mays B104. In words: Post-emergence glyphosate tolerance of dgt-28 T0 corn (greenhouse). The following applies: T0 dgt-28 corn plants. Type of assay: in vivo. The method, then: Zea mays dgt-28 transformation events (T0) were allowed to acclimate in the greenhouse and were grown until plants had transitioned from tissue culture to greenhouse growing conditions (i.e., 2-4 new, normal looking leaves had emerged from the whorl). Plants were grown at 27° C. under 16 hour light:8 hour dark conditions in the greenhouse. The plants were then treated with commercial formulations of DURANGO DMA™ (containing the herbicide glyphosate) with the addition of 2% w/v ammonium-sulfate. Herbicide applications were made with a track sprayer at a spray volume of 187 L/ha, 50-cm spray height. T0 plants were sprayed with a range of glyphosate from 280-4480 g ae/ha glyphosate, which is capable of significant injury to untransformed corn lines. A lethal dose is defined as the rate that causes >95% injury to the B104 inbred.
T0 events of dgt-28 linked with TraP4, TraP5, TraP8 and TraP23 were generated by Agrobacterium transformation and were allowed to acclimate under controlled growth chamber conditions until 2-4 new, normal looking leaves had emerged from the whorl. Plants were assigned individual identification numbers and sampled for copy number analyses of both dgt-28 and aad-1. Based on copy number analyses, plants were selected for protein expression analyses. Plants were transplanted into larger pots with new growing media and grown at 27° C. under 16 hour light:8 hour dark conditions in the greenhouse. Remaining plants that were not sampled for protein expression were then treated with commercial formulations of DURANGO DMA™ (glyphosate) with the addition of 2% w/v ammonium-sulfate. Treatments were distributed so that each grouping of plants contained T0 events of varying copy number. Herbicide applications were made with a track sprayer at a spray volume of 187 L/ha, 50-cm spray height. T0 plants were sprayed with a range of glyphosate from 280-4480 g ae/ha glyphosate capable of significant injury to untransformed corn lines. A lethal dose is defined as the rate that causes >95% injury to the B104 inbred. B104 was the genetic background of the transformants.

Assay [3] relates to Zea mays hybrid 4XP811/B104. In words: Glyphosate tolerance of dgt-28 corn under field conditions. Particulars: corn under field conditions through the reproductive growth stages. Type of assay: in vivo. The text has this: Single copy T1 events were sent to a field location to create both hybrid hemizygous and inbred homozygous seed for additional characterization. Hybrid seeds were created by crossing T1 events in the maize transformation line B104 to the inbred line 4XP811 generating hybrid populations segregating 1:1 (hemizygous:null) for the event. The resulting seeds were shipped to 2 separate locations. A total of five single copy events per construct were planted at each location in a randomized complete block design in triplicate. The fields were designed for glyphosate applications to occur at the V4 growth stage and a separate grouping of plants to be applied at the V8 growth stage. The 4XP811/B104 conventional hybrid was used as a negative control.
Experimental rows were treated with 184 g ae/ha ASSURE II™ (106 g ai/L quizalofop-methyl) to eliminate null segregants. All experimental entries segregated 1:1 (sensitive:resistant) (p=0.05) with respect to the ASSURE II™ application. Selected resistant plants were sampled from each event for quantification of the DGT-28 protein by standard ELISA.
Quizalofop-methyl resistant plants were treated with the commercial herbicide DURANGO DMA™ (480 g ae/L glyphosate) with the addition of 2.5% w/v ammonium-sulfate at either the V4 or V8 growth stages. […]

Assay [4] has as its system rice. In words: Postemergence glyphosate tolerance of dgt-28 rice (T0, T1). Type of assay: in vivo, Oryza sativa. Particulars: following 560 g ae/ha glyphosate used for selection. On the procedure: Transplanted rice transformants produced via Agrobacterium transformation were transplanted into media and acclimated to greenhouse conditions. […] Selected T0 events from construct pDAB110828 were treated with 2240 g ae/ha DURANGO DMA™ as previously described and assessed 7 and 14 days after treatment. […] All PCR positive plants were allowed to produce T1 seed for further characterization.
(§1) T1 resistant plants from each event used in the progeny testing were given unique identifiers and sampled for zygosity analyses of the dgt-28 gene. Zygosity data were used to assign 2 hemizygous and 2 homozygous replicates to each rate of glyphosate applied allowing for a total of 4 replicates per treatment. These plants were compared against wildtype kitaake rice. All plants were sprayed with a track sprayer set at 187 L/ha. The plants were sprayed from a range of 560-2240 g ae/ha DURANGO DMA™. All applications were formulated in water with the addition of 2% w/v ammonium sulfate (AMS). Plants were evaluated at 7 and 14 days after treatment. Plants were assigned an injury rating with respect to overall visual stunting, chlorosis, and necrosis. The T1 generation is segregating, so some variable response is expected due to difference in zygosity.

Assay [5] has as its system tobacco (cv. Petit Havana). Briefly: Postemergence glyphosate tolerance of dgt-28 tobacco (T1, T2). Type of assay: in vivo. Particulars: tobacco through two generations.
Excerpt: as §1, with “Petite havana tobacco.” for “kitaake rice.”, “560-4480” for “560-2240”
Rates of DURANGO DMA™ ranging from 420-3360 g ae/ha glyphosate were applied to 2-3 leaf tobacco as previously described.

B1: DGT-28: EPSP synthase (GENBANK ZP_06917240.1) from Streptomyces sviceus ATCC29083; glyphosate tolerance gene and protein (protein)
chain: MRGMPALSLPGSKSITARALFLAAAADGVTTLVRPLRSDDTEGFAEGLVRLGYRVGRTPDTWQVDGRPQGPAVAEADVYCRDGATTARFLPTLAAAGHGTYRFDASPQMRRRPLLPLSRALRDLGVDLRHEEAEGHHPLTVRAAGVEGGEVTLDAGQSSQYLTALLLLGPLTRQGLRIRVTDLVSAPYVEITLAMMRAFGVEVAREGDVFVVPPGGYRATTYAIEPDASTASYFFAAAALTPGAEVTVPGLGTGALQGDLGFVDVLRRMGAEVSVGADATTVRGTGELRGLTANMRDISDTMPTLAAIAPFASAPVRIEDVANTRVKECDRLEACAENLRRLGVRVATGPDWIEIHPGPATGAQVTSYGDHRIVMSFAVTGLRVPGISFDDPGCVRKTFPGFHEAFAELRRGIGS
Take B1: the “selection for transgenic Arabidopsis plants with glyphosate” value in assay [1] is listed as “effective selection”. For the same molecule, the “glyphosate rate up to which tolerance was achieved” value in assay [2] is “up to 4480 g ae/ha”. The “glyphosate rate up to which robust tolerance was shown” value is “up to 4480 g ae/ha” in assay [3] and “up to 3360 g ae/ha” in assay [5]. In addition, the “glyphosate rate up to which tolerance was shown” value in assay [4] is recorded as “up to 2240 g ae/ha”.
